# Changes are numbered by the printed parent chain.
# T1: GDF10 (UniProt P55107 369-478)
# T1 sequence (looked up): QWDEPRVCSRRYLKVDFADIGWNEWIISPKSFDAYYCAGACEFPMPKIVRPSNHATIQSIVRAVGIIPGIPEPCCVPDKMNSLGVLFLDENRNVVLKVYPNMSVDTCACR
# T2: Human Activin B (human, UniProt P09529 293-407)
# T2 construct: Also used for the Activin B ligand of the ActRIIB/SMAD reporter assay, where the species is not restated
# T2 sequence (looked up): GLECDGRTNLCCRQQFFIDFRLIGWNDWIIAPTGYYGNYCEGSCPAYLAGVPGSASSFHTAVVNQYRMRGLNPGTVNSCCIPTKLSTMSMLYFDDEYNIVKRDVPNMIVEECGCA
# T3: Human BMP10 (human, UniProt O95393 317-424)
# T3 sequence (looked up): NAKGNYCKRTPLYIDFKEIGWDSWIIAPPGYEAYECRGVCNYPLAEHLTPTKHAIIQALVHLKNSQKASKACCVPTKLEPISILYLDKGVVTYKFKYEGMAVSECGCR
# T4: GDNF (UniProt P39905 78-211)
# T4 sequence (looked up): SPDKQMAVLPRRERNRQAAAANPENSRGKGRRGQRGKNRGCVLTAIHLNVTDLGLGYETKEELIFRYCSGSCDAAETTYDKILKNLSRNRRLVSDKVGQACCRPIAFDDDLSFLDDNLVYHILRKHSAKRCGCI
# T5: Human Activin A Fc (human, UniProt P08476 311-426)
# T5 sequence (looked up): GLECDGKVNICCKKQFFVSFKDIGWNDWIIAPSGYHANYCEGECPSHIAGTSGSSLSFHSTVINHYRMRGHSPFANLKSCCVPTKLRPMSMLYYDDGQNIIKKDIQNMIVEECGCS
# T6: Human BMP9 (human, UniProt Q9UK05 320-429)
# T6 sequence (looked up): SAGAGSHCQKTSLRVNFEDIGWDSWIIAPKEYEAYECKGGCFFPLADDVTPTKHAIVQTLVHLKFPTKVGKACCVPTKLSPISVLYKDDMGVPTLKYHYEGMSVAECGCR
# T7: GDF15 (Homo sapiens (Human), UniProt Q99988 30-308)
# T7 sequence: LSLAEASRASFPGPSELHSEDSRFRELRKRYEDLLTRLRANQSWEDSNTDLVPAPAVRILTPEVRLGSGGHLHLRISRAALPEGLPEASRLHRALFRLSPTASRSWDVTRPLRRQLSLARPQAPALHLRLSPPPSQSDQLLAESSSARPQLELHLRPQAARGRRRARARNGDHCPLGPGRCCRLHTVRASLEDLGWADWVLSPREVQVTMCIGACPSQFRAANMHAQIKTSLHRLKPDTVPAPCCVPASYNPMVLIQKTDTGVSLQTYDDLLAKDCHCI
# T8: Mouse GDF15 Fc (mouse, UniProt Q9Z0J7 189-303, limits assumed)
# T8 construct: also called mouse GDF15Fc fusion
# T8 sequence (looked up): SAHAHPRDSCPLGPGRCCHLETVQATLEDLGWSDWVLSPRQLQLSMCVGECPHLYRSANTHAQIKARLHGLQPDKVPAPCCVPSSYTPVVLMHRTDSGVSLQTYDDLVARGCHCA
# T9: Cyno GDF15 Fc (cyno, UniProt G7PWZ3 193-308)
# T9 construct: also called cyno GDF15-Fc fusion
# T9 sequence: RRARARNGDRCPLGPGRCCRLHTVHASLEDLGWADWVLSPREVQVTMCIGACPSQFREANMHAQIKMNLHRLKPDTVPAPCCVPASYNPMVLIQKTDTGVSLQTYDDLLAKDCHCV
# T10: Rat GDF-15 Fc (rat, UniProt Q9Z0J6 189-303, limits assumed)
# T10 sequence (looked up): T8 sequence (looked up) with A4L, Q63L, K75R, R110Q
# B1: Clone E IgG (antibody, V domains shown)
# VH: QVQLVQSGAEVKKPGASVKVSCKASGYTFTSYGINWVRQAPGQGLEWMGWITAYSGDTNYAQKLQGRVTMTTDTSTSTAYMELRSLRSDDTAVYYCARGPGQYADVDVWGQGTMVTVSS
# VL: DIQMTQSPSSVSASVGDRVTITCRASQGISSWLAWYQQKPGKAPKLLIYAASSLQSGVPSRFSGSGSGTDFTLTISSLQPEDFATYYCQQANSFPITFGGGTKVEIKR
# notes: IgG format
# B2: Clone I IgG (antibody, V domains shown)
# VH: B1 VH with S31D, Y32E, N59V
# VL: B1 VL
# notes: IgG format
# B3: Clone G IgG (antibody, V domains shown)
# VH: QVQLVQSGAEVKKPGSSVKVSCKASGGTFQGYAISWARQAPGQGLEWMGGIIPPYATANYAQKFQGRVTITADESTSTAYMELSSLRSEDTAVYYCARGVGELHLDVWGQGTMVTVSS
# VL: not shown
# notes: IgG format
# B4: Clone B IgG (antibody, V domains shown)
# VH: QVQLQESGPGLVKPSQTLSLTCTVSGGSISSGGIYWTWIRQHPGKGLEWIGAIAYSGSTYYNPSLKSRVTISVDTSKNQFSLKLSSVTAADTAVYYCARGIEYQHFDYWGQGTLVTVSS
# VL: not shown
# notes: IgG format; AAGA mutation in the Fc region stated for the FcRn test; also called GDF15 antibody agent Clone B
# B5: Clone R IgG (antibody, V domains shown)
# VH: B4 VH with K66E
# VL: not shown
# notes: IgG format
# B6: Clone Q IgG (antibody, V domains shown)
# VH: B4 VH
# VL: not shown
# notes: IgG format
# B7: Clone N IgG (antibody, V domains shown)
# VH: QVQLVQSGAEVKKPGASVKVSCKASGYTFTDYGIFWVRQAPGQGLEWMGWITAYSGDTHYAQKLQGRVTMTTDTSTSTAYMELRSLRSDDTAVYYCVRDTQYGGSPYWGQGTLVTVSS
# VL: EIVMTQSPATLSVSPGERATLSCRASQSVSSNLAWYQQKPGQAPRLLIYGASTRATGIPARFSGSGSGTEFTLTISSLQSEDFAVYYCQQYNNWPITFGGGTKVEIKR
# notes: IgG format
# B8: Clone D IgG (antibody, V domains shown)
# VH: B4 VH with S30N, I34Y, A54Y, Y60V, I101V, D107N, Y108E
# VL: not shown
# notes: IgG format
# B9: Clone C IgG (antibody, V domains shown)
# VH: B4 VH with I34Y, T37S, A54V, S58H, I101V, D107S, Y108L
# VL: not shown
# notes: IgG format; AAGA mutation in the Fc region stated for the FcRn test; also called GDF15 antibody agent Clone C
# Biological target: T1, GDF10
# Experiment: Octet BLI, IgG on tip, avid
binding result,Kd,Binder
no binding (tested: 100 nM),–,B1
no binding (tested: 100 nM),–,B2
–,36.8 nM,B3
no binding (tested: 100 nM),–,B4
no binding (tested: 100 nM),–,B5
no binding (tested: 100 nM),–,B6
no binding (tested: 100 nM),–,B7

# Biological target: GDF8 (UniProt O14793 267-375)
# Experiment: Octet BLI, IgG on tip, avid
row,binding result,Binder
1,no binding (tested: 100 nM),B1
2,no binding (tested: 100 nM),B2
3,no binding (tested: 100 nM),B3
4,no binding (tested: 100 nM),B4
5,no binding (tested: 100 nM),B8
6,no binding (tested: 100 nM),B9
7,no binding (tested: 100 nM),B5
8,no binding (tested: 100 nM),B6
9,no binding (tested: 100 nM),B7

# Biological target: T2, Human Activin B
# Experiment: Octet BLI, IgG on tip, avid
binding result,Kd,Binder
no binding (tested: 100 nM),–,B1
no binding (tested: 100 nM),–,B2
no binding (tested: 100 nM),–,B3
–,145 nM,B4
no binding (tested: 100 nM),–,B8
–,132 nM,B9
–,188 nM,B5
–,172 nM,B6
no binding (tested: 100 nM),–,B7

# Biological target: T3, Human BMP10
# Experiment: Octet BLI, IgG on tip, avid
row,binding result,Binder
1,no binding (tested: 100 nM),B1
2,no binding (tested: 100 nM),B2
3,no binding (tested: 100 nM),B8
4,no binding (tested: 100 nM),B9
5,no binding (tested: 100 nM),B6
6,no binding (tested: 100 nM),B7

# Biological target: T4, GDNF
# Experiment: Octet BLI, IgG on tip, avid
binding result,Kd,Binder
no binding (tested: 100 nM),–,B1
no binding (tested: 100 nM),–,B3
no binding (tested: 100 nM),–,B4
no binding (tested: 100 nM),–,B8
no binding (tested: 100 nM),–,B9
no binding (tested: 100 nM),–,B5
no binding (tested: 100 nM),–,B6
–,2.56 nM,B7

# Biological target: T11, GDF11 (UniProt O95390 299-407)
# T11 construct: Also the GDF-11 ligand of the ActRIIB/SMAD reporter assay
# Experiment: Octet BLI, IgG on tip, avid
# T11 sequence (O95390 299-407 limits assumed): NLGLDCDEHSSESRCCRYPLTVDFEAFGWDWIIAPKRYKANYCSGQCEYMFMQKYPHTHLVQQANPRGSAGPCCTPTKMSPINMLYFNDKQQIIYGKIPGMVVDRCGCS
row,binding result,Binder
1,no binding (tested: 100 nM),B1
2,no binding (tested: 100 nM),B2
3,no binding (tested: 100 nM),B3
4,no binding (tested: 100 nM),B4
5,no binding (tested: 100 nM),B8
6,no binding (tested: 100 nM),B9
7,no binding (tested: 100 nM),B5
8,no binding (tested: 100 nM),B6
9,no binding (tested: 100 nM),B7

# Biological target: T5, Human Activin A Fc
# Experiment: Octet BLI, IgG on tip, avid
binding result,Kd,Binder
no binding (tested: 100 nM),–,B1
no binding (tested: 100 nM),–,B2
no binding (tested: 100 nM),–,B3
–,7.87 nM,B8
–,6.48 nM,B9
no binding (tested: 100 nM),–,B7

# Biological target: T6, Human BMP9
# Experiment: Octet BLI, IgG on tip, avid
row,binding result,Binder
1,no binding (tested: 100 nM),B1
2,no binding (tested: 100 nM),B2
3,no binding (tested: 100 nM),B7

# Biological target: T7, GDF15
# Experiment: cell-based or functional assay
GDF15 - GFRAL RET pERK IC50 (pM),GDF15 - GFRAL-RET Luciferase IC50 (pM),Binder
35 pM,190 pM,B1
34.5 pM,79.3 pM,B2
66.7 pM,97.1 pM,B3
104 pM,66.2 pM,B4
50.4 pM,58.7 pM,B8
145 pM,39.6 pM,B9
99.7 pM,–,B7

# Biological target: T8, Mouse GDF15 Fc
# Experiment: Octet BLI, IgG on AHC tip, avid
# Procedure: (§1) Briefly, ForteBio affinity measurements were performed by loading IgGs on-line onto AHC sensors. Sensors were equilibrated off-line in assay buffer for 30 min and then monitored on-line for 60 seconds for baseline establishment. Sensors with loaded IgGs were exposed to 100 nM antigen for 3 minutes, and afterwards were transferred to assay buffer for 3 min for off-rate measurement. All kinetics were analyzed using the 1:1 binding model.
row,Kd,Binder
1,0.194 nM,B1
2,0.152 nM,B2
3,0.191 nM,B3
4,0.358 nM,B4
5,0.299 nM,B8
6,0.331 nM,B9
7,0.219 nM,B7

# Biological target: T9, Cyno GDF15 Fc
# Experiment: Octet BLI, IgG on AHC tip, avid
# Procedure: as §1
row,Kd,Binder
1,0.178 nM,B1
2,3.04 nM,B2
3,0.107 nM,B3
4,0.422 nM,B4
5,0.141 nM,B8
6,0.0862 nM,B9
7,0.219 nM,B7

# Biological target: T10, Rat GDF-15 Fc
# Experiment: Octet BLI, IgG on AHC tip, avid
# Procedure: as §1
row,Kd,Binder
1,0.451 nM,B1
2,1.18 nM,B2
3,1.01 nM,B3
4,0.621 nM,B4
5,0.467 nM,B8
6,0.437 nM,B9
7,0.358 nM,B7

# Biological target: T1, GDF10
# Experiment: Octet BLI, IgG on tip, avid; P.F. = binder with poor fit
row,binding result,Binder
1,binds,B8

# Biological target: T3, Human BMP10
# Experiment: as above
row,binding result,Binder
1,binds,B3

# Biological target: T6, Human BMP9
# Experiment: as above
row,binding result,Binder
1,binds,B3
2,binds,B4
3,binds,B8
4,binds,B9
5,binds,B5
6,binds,B6
